Laboratory results from PMC11754096.

Target: T-complex protein ring complex (TRiC), endogenous (human (endogenous in HEK293 cells)) (UniProt P17987)
Assay: cryo-EM structure; in situ cryo-electron tomography of FIB-milled HEK Flp-In T-Rex 293 cells, template matching, subtomogram averaging and classification; open TRiC; untreated cells and cells treated with 100 µM HHT for 2 h

percent of all TRiC with a single PFD (HHT-treated cells): 18%
percent of all TRiC with a single PFD (untreated cells): 12%
percent of all TRiC with two PFD (HHT-treated cells): 2%
percent of all TRiC with two PFD (untreated cells): 1%
Substance: prefoldin (PFD), endogenous (complex)
